Non-standard residues stand in square brackets, D forms with d. No end group written: not given here. pT = C[C@@H](OP(=O)(O)O)[C@H](N)C(=O)O; pS = N[C@@H](COP(=O)(O)O)C(=O)O
Assays:
[1] = biological target: T1, HLA-B*0702 (HLA-B7) peptide complexes (Homo sapiens, UniProt P01889); experiment: HLA-B*0702 phosphopeptides associated with leukemia samples (isolation of HLA-associated peptides); conditions: for Copies/cell class, ALL1: acute lymphoblastic leukemia sample ALL1; for Copies/cell class, HCL1: hairy cell leukemia sample HCL1; for Copies/cell class, B Cell: healthy B cells; for Copies/cell class, T Cell: healthy T cells
T1 construct: endogenous in cells; host or cells: JY B-lymphoblastoid line; primary ALL, CLL, HCL, AML samples; bone marrow; healthy B and T cells
In short: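 Class I HLA-A2 and HLA-B7 complexes were immunoaffinity-purified (BB7.2 or MEL antibodies on protein A) from CHAPS lysates of ~1.2-14×10^9 cells, using phosphatase and protease inhibitors. Sources were Ficoll-purified (>98%) CLL, MCL, ALL and AML cells, healthy splenic T/B cells and JY cells. Peptides were eluted with 10% acetic acid.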

[2] = biological target: T2, HLA-B*0702 (Homo sapiens, UniProt P01889); experiment: Phosphopeptides presented in association with class I molecules (HLA-B*0702) on cancer cells: melanoma and/or leukemia; design: key: Melanoma (M); Leukemia (L); L/M: Melanoma (M) and/or Leukemia (L); conditions: cancer type on which the HLA-B*0702 phosphopeptide is presented
T2 construct: endogenous in cells; host or cells: melanoma and/or leukemia cells

Substance	Copies/cell class, AML1 [1]	Copies/cell class, CLL2 [1]	Copies/cell class, CLL4 [1]	Copies/cell class, JY [1]	Copies/cell class, ALL1 [1]	Copies/cell class, HCL1 [1]	Copies/cell class, B Cell [1]	L/M [2]	Copies/cell class, T Cell [1]	Copies/cell class, BM ([1]; healthy bone marrow)
346 (RPT[pS]RLNRL; listed as Homo sapiens) [compound 346]	2 (2 indicates 1-5 copies/cell)	2 (2 indicates 1-5 copies/cell)	2 (2 indicates 1-5 copies/cell)	4 (4 indicates >25 copies per cell)	2 (2 indicates 1-5 copies/cell)	2 (2 indicates 1-5 copies/cell)	2 (2 indicates 1-5 copies/cell)	L		
347 (RPV[pS]PFQEL; listed as Homo sapiens) [compound 347]	2 (2 indicates 1-5 copies/cell)	2 (2 indicates 1-5 copies/cell)	2 (2 indicates 1-5 copies/cell)	4 (4 indicates >25 copies per cell)	3 (3 indicates 6-25 copies per cell)	3 (3 indicates 6-25 copies per cell)	3 (3 indicates 6-25 copies per cell)	L	3 (3 indicates 6-25 copies per cell)	
348 (RPV[pS]PGKDI; listed as Homo sapiens) [compound 348]					1 (1 indicates <1 copy/cell)			L		
349 (RPV[pT]PVSDL; listed as Homo sapiens) [compound 349]		2 (2 indicates 1-5 copies/cell)		4 (4 indicates >25 copies per cell)	4 (4 indicates >25 copies per cell)	1 (1 indicates <1 copy/cell)	2 (2 indicates 1-5 copies/cell)	L	2 (2 indicates 1-5 copies/cell)	
350 (RPW[pS]PAVSA; listed as Homo sapiens) [compound 350]				1 (1 indicates <1 copy/cell)	1 (1 indicates <1 copy/cell)	1 (1 indicates <1 copy/cell)		L		
351 (RPY[pS]PPFFSL; listed as Homo sapiens) [compound 351]	2 (2 indicates 1-5 copies/cell)			2 (2 indicates 1-5 copies/cell)	2 (2 indicates 1-5 copies/cell)		2 (2 indicates 1-5 copies/cell)	L	2 (2 indicates 1-5 copies/cell)	
352 (RRK[pS]QVAEL; listed as Homo sapiens) [compound 352]	4 (4 indicates >25 copies per cell)							L		
356 (RRS[pS]LDAEIDSL; listed as Homo sapiens) [compound 356]	1 (1 indicates <1 copy/cell)							L		
358 (RSE[pS]KDRKL; listed as Homo sapiens) [compound 358]					1 (1 indicates <1 copy/cell)			L		
359 (RSG[pS]LERKV; listed as Homo sapiens) [compound 359]					1 (1 indicates <1 copy/cell)			L		
360 (RSL[pS]PGGAA; listed as Homo sapiens) [compound 360]					1 (1 indicates <1 copy/cell)			L		
361 (RSL[pS]PLLF; listed as Homo sapiens) [compound 361]					2 (2 indicates 1-5 copies/cell)		1 (1 indicates <1 copy/cell)	L	1 (1 indicates <1 copy/cell)	
363 (RTE[pS]DSGLKK; listed as Homo sapiens) [compound 363]					1 (1 indicates <1 copy/cell)			L		
366 (RVR[pS]PTRSP; listed as Homo sapiens) [compound 366]	2 (2 indicates 1-5 copies/cell)							L		
367 (SPA[pS]PKISL; listed as Homo sapiens) [compound 367]		1 (1 indicates <1 copy/cell)	1 (1 indicates <1 copy/cell)	4 (4 indicates >25 copies per cell)	1 (1 indicates <1 copy/cell)	1 (1 indicates <1 copy/cell)		L		
368 (SPEKAGRR[pS]SL; listed as Homo sapiens) [compound 368]	1 (1 indicates <1 copy/cell)							L		
370 (SPGLARKR[pS]L; listed as Homo sapiens) [compound 370]	1 (1 indicates <1 copy/cell)							L		
371 (SPK[pS]PGLKA; listed as Homo sapiens) [compound 371]	1 (1 indicates <1 copy/cell)	3 (3 indicates 6-25 copies per cell)	3 (3 indicates 6-25 copies per cell)	4 (4 indicates >25 copies per cell)	1 (1 indicates <1 copy/cell)	2 (2 indicates 1-5 copies/cell)		L	1 (1 indicates <1 copy/cell)	1 (1 indicates <1 copy/cell)
374 (SPRR[pS]RSISL; listed as Homo sapiens) [compound 374]	4 (4 indicates >25 copies per cell)							L/M		
377 (SPR[pS]PGKPM; listed as Homo sapiens) [compound 377]	2 (2 indicates 1-5 copies/cell)	1 (1 indicates <1 copy/cell)	2 (2 indicates 1-5 copies/cell)	4 (4 indicates >25 copies per cell)	1 (1 indicates <1 copy/cell)	2 (2 indicates 1-5 copies/cell)		L		
379 (SPR[pS]PSTTYL; listed as Homo sapiens) [compound 379]	2 (2 indicates 1-5 copies/cell)							L		
382 (SPS[pS]PSVRRQL; listed as Homo sapiens) [compound 382]	2 (2 indicates 1-5 copies/cell)						2 (2 indicates 1-5 copies/cell)	L	2 (2 indicates 1-5 copies/cell)	
383 (SPSTSRSGG[pS]SRL; listed as Homo sapiens) [compound 383]	1 (1 indicates <1 copy/cell)							L		
385 (TPAQPQRR[pS]L; listed as Homo sapiens) [compound 385]					1 (1 indicates <1 copy/cell)			L		
386 (TPI[pS]PGRASGM; listed as Homo sapiens) [compound 386]					1 (1 indicates <1 copy/cell)			L		
387 (TPR[pS]PPLGL; listed as Homo sapiens) [compound 387]	3 (3 indicates 6-25 copies per cell)	3 (3 indicates 6-25 copies per cell)	2 (2 indicates 1-5 copies/cell)	4 (4 indicates >25 copies per cell)		3 (3 indicates 6-25 copies per cell)		L		
388 (TPR[pS]PPLGLI; listed as Homo sapiens) [compound 388]	3 (3 indicates 6-25 copies per cell)	2 (2 indicates 1-5 copies/cell)	2 (2 indicates 1-5 copies/cell)	4 (4 indicates >25 copies per cell)		2 (2 indicates 1-5 copies/cell)		L		
389 (VPR[pS]PKHAHSSSL; listed as Homo sapiens) [compound 389]	1 (1 indicates <1 copy/cell)							L		
391 (YQR[pS]FDEVEGV; listed as Homo sapiens) [compound 391]	1 (1 indicates <1 copy/cell)							L		

From patent US12042530B2, “Target peptides for immunotherapy and diagnostics” (University of Virginia Patent Foundation, priority 2012, dated 2024)
